Consider four molecules from patent US20200347130A1 (JIANGSU HENGRUI MEDICINE, published 2020).

Numbering of substitutions follows the chain as printed.

Assay [1] has as its target T1, CD96 epitope peptide #11 (166-185) (human).
T1 peptide: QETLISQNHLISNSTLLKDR
In words: peptide ELISA ('-' indicates no binding, table note). As to the method: (§1) The epitopes recognized by anti-CD96 antibody were detected by the assay of binding the antibody to different polypeptide fragments of CD96 protein. The fragments of different polypeptides of the CD96 antigen were coated on the microtiter plate. The signal density after the antibody was added was used to judge the binding activity of the antibody and the polypeptide. The specific experimental method is as follows:
(§2) The polypeptides were diluted to a concentration of 20 μg/ml with PBS buffer (Shanghai Yuanpei Biotechnology Co., Ltd. Cat No. B320), pH 7.4, added to a 96-well microtiter plate (Corning, Cat No. CLS3590-100EA) at a volume of 50 μl/well, and coated at 4° C. overnight. After discarding the liquid, 250 μl/well of 5% skim milk (BD skim milk, Cat No. 232100) blocking solution diluted with PBS was added, and the plate was incubated in an incubator at 37° C. for 3 hours. After blocking, the blocking solution was discarded, and the plate was washed 5 times with PBST buffer (pH 7.4 PBS containing 0.05% tween-20). 50 μl/well of different concentrations of the antibodies to be tested (hybridoma purification antibody or humanized antibody) diluted with sample dilution was added, and the plate was incubated in an incubator at 37° C. for 2 hours. […] After washing the plate 5 times with PBST, 50 μl/well of TMB chromogenic substrate (KPL, Cat No. 52-00-03) was added, the plate was incubated at room temperature for 5-15 min, followed by adding 50 μl/well of 1M H₂SO₄ to stop the reaction. The absorption value was read at 450 nm with a microplate reader (Thermo Scientific MuLtiskan MK3), and the epitopes that CD96 antibody can recognize were analyzed.

In assay [2] the target is T2, CD96 epitope peptide #7 (107-126) (human).
T2 peptide: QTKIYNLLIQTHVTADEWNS
Described as above. As to the method: as §1, §2

In assay [3] the target is T3, CD96 epitope peptide #14 (211-230) (human).
T3 peptide: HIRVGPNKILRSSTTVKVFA
The description is as above. On the procedure:
as §1, §2

For assay [4], the target named is T4, CD96 epitope peptide #20 (295-314) (human).
T4 peptide: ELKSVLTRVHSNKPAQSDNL
Described as above. On the procedure:
as §1, §2

The target of assay [5] is T5, CD96 epitope peptide #13 (196-215) (human).
T5 peptide: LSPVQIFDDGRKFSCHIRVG
The description is as above. On the procedure:
as §1, §2

The target of assay [6] is T6, CD96 epitope peptide #2 (32-51) (human).
T6 peptide: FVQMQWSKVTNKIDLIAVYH
The assay is described as above. On the procedure:
as §1, §2

Assay [7] addresses T7, CD96 epitope peptide #6 (92-111) (human).
T7 peptide: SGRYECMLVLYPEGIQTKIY
The assay is described as above. On the procedure: as §1, §2

For assay [8], the target named is T8, CD96 epitope peptide #22 (325-344) (human).
T8 peptide: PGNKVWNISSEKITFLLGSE
Described as above. As to the method:
as §1, §2

Assay [9] concerns the target T9, CD96 epitope peptide #1 (17-36) (human).
T9 peptide: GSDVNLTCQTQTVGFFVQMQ
Described as above. As to the method:
as §1, §2

In assay [10] the target is T10, CD96 epitope peptide #16 (235-254) (human).
T10 peptide: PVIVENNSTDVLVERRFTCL
Described as above. As to the method: as §1, §2

In assay [11] the target is T11, CD96 epitope peptide #8 (122-141) (human).
T11 peptide: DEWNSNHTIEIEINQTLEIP
Described as above. On the procedure: as §1, §2

Assay [12] addresses T12, CD96 epitope peptide #17 (250-269) (human).
T12 peptide: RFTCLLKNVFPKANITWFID
The description is as above. On the procedure:
as §1, §2

In assay [13] the target is T13, CD96 epitope peptide #15 (220-239) (human).
T13 peptide: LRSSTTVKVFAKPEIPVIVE
The description is as above. On the procedure:
as §1, §2

Assay [14] has as its target T14, CD96 epitope peptide #5 (77-86) (human).
T14 peptide: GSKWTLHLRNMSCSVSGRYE
Described as above. As to the method: as §1, §2

Assay [15] deals with T15, CD96 epitope peptide #12 (181-200) (human).
T15 peptide: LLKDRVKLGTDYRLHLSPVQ
The assay is described as above. On the procedure:
as §1, §2

The target of assay [16] is T16, CD96 epitope peptide #3 IAVYHPQYGFYCAYGRPCES (47-66) (human).
T16 construct: also called 3# peptides; #3 antigen fragment
T16 peptide: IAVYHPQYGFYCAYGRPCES
The assay can be described thus: peptide ELISA, peptide coated. On the procedure:
as §1, §2

Assay [17] has as its target T2, CD96 epitope peptide #7 (107-126). In words: peptide ELISA, peptide coated. As to the method: as §1, §2
For assay [18], the target named is T4, CD96 epitope peptide #20 (295-314). The assay can be described thus: peptide ELISA, peptide coated. As to the method: as §1, §2
For assay [19], the target named is T17, CD96 epitope peptide #4 (62-81) (human).
T17 peptide: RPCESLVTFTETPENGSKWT
In words: peptide ELISA, peptide coated. On the procedure: as §1, §2

Assay [20] has as its target T8, CD96 epitope peptide #22 (325-344). The assay can be described thus: peptide ELISA, peptide coated. On the procedure: as §1, §2
The target of assay [21] is T9, CD96 epitope peptide #1 (17-36). The assay can be described thus: peptide ELISA, peptide coated. As to the method:
as §1, §2

For assay [22], the target named is T18, CD96 epitope peptide #9 (137-156) (human).
T18 peptide: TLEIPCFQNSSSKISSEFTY
The assay can be described thus: peptide ELISA, peptide coated. On the procedure: as §1, §2

The target of assay [23] is T12, CD96 epitope peptide #17 (250-269). The assay can be described thus: peptide ELISA, peptide coated. On the procedure:
as §1, §2

For assay [24], the target named is T19, CD96 epitope peptide #18 (265-284) (human).
T19 peptide: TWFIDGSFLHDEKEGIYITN
The assay can be described thus: peptide ELISA, peptide coated. As to the method:
as §1, §2

Assay [25] addresses T20, CD96 epitope peptide #10 (149-170) (human).
T20 peptide: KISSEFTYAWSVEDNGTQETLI
In words: peptide ELISA, peptide coated. As to the method:
as §1, §2

The target in assay [26] is T15, CD96 epitope peptide #12 (181-200). The assay can be described thus: peptide ELISA, peptide coated. As to the method: as §1, §2

B1: ch1720 (antibody, human IgG4 S228P, kappa, V domains shown)
VH: EFQLQQSGPELVKPGASVKISCKASAYSLTDYNMNWVKQSNGKSLEWIGVINPSYGISSYNQKFKGKATLTVDQSSSTAYMHLNSLTSEDSAVYYCARQLRLPGYFDVWGTGTTVTVSS
VL: DIKMTQSPSSKNASLGERVTITCKASQDINSYLNWFQQKPGKSPKTLIYRASRLVDGVPSRFSGSGSGQDYSLTISSLEYEDMGIYYCLKYDEFPYTFGGGTKLEIKR
notes: also called chimeric antibody corresponding to m1720
B1: the binding result in assay [1], in [2], in assay [3], in assay [4], in [5] and in assay [6] was “no binding” each time. Besides, the binding result in [7], in assay [8], in assay [9], in assay [10], in [11] and in assay [12] was “no binding” in each case. Besides, the binding result in assay [13] is on record as “no binding”; in [14] it was “no binding”; in assay [15], “no binding”; in assay [16], “binds”.

B2: ch1718 (antibody, human IgG4 S228P, kappa, V domains shown)
VH: B1 VH with L29I, S58T, S59D, K63N, G66D, H82Q, R98I, T116I
VL: B1 VL with K11M, N12Y, S31N, S52N, L104V
notes: also called chimeric antibody corresponding to m1718
As for B2, the binding result in assay [17], in [18], in [19], in assay [20], in [21] and in assay [22] was “binds” in each case. For the same molecule, the binding result in assay [23], in assay [24], in assay [25] and in assay [26] was “binds” each time.

B3: ch1719 (antibody, human IgG4 S228P, kappa, V domains shown)
VH: QVQLKESGPGLVAPSQSLSITCTVSGFSLISYGVSWVRQPPGKGLEWLGVIWGDGNTNYHSVLISRLSIRKDDSKSQVFLKLNSLQTDDTATYYCAKNNYYGSRYGYPMDYWGQGTSVTVSS
VL: DIVMTQSHKFMSTSVGDRVSITCKATQDVGTAVAWYQQKPGHSPKLLIYWASTRHTGVPERFTGSGSGTDFTLTIDNVQSEDLADYFCQQYGSSVLTFGAGTKVELRR
notes: also called chimeric antibody corresponding to m1719
For the molecule B3, the binding result in assay [1], in [2], in [3], in assay [4], in [5] and in assay [6] was “no binding” each time. Also, the binding result in assay [7], in assay [8], in assay [9], in [10], in assay [11] and in assay [12] was “no binding” each time. The binding result in assay [13], in assay [14] and in assay [15] was “no binding” in each case.

B4: ch1721 (antibody, human IgG4 S228P, kappa, V domains shown)
VH: B3 VH with S35N, N56S, V62A, R70S, K81N, N99Y, Y100F, P108A, Y111S, T116I
VL: DIQMTQSPASLSAAVGETVTITCRASENIYSSLAWYQQKQGKSPQLLVYNAKTLIETVASRFSGSGSGTQYSLKINSLQPEDFGSFYCQHHYGTPYTFGGGTKLEIKR
notes: also called chimeric antibody corresponding to m1721
Regarding B4, the binding result in assay [21] and in assay [23] was “binds” each time.
